Results reported in patent US20130164299A1.
Blank lines part the entries; values can stand above or below the substance they belong to.

Assays:
[1] = biological target: CD161, on cells (UniProt Q12918); test: cell-based or functional assay
[2] = biological target: lectin-like transcript 1 (LLT1), recombinantly expressed on cells (human) (UniProt Q9UHP7); test: cell-based or functional assay
[3] = biological target: LLT1-Fc fusion protein (human) (UniProt Q9UHP7); test: ELISA, coated LLT1-Fc, anti-mIg-HRP detection
[4] = biological target: CLEC2A-Fc protein (UniProt Q6UVW9); test: ELISA, coated CLEC2A-Fc, anti-mIg-HRP detection
[5] = biological target: CLEC2D iso2-Fc; test: ELISA, coated CLEC2D iso2-Fc, anti-mIg-HRP detection
[6] = biological target: CLEC2D iso4-Fc; test: ELISA, coated CLEC2D iso4-Fc, anti-mIg-HRP detection
[7] = biological target: LLT1-Fc fusion protein (human) (UniProt Q9UHP7); test: ELISA, coated LLT1-Fc, direct detection of the Fc portion
[8] = biological target: CLEC2A-Fc protein (UniProt Q6UVW9); test: ELISA, coated CLEC2A-Fc, direct detection of the Fc portion
[9] = biological target: CLEC2D iso2-Fc; test: ELISA, coated CLEC2D iso2-Fc, direct detection of the Fc portion
[10] = biological target: CLEC2D iso4-Fc; test: ELISA, coated CLEC2D iso4-Fc, direct detection of the Fc portion
[11] = biological target: CD20 on C1R and C1R-LLT1 cells (UniProt P11836); test: cell-based or functional assay
CD20 on C1R and C1R-LLT1 cells, sequence (P11836 whole entry): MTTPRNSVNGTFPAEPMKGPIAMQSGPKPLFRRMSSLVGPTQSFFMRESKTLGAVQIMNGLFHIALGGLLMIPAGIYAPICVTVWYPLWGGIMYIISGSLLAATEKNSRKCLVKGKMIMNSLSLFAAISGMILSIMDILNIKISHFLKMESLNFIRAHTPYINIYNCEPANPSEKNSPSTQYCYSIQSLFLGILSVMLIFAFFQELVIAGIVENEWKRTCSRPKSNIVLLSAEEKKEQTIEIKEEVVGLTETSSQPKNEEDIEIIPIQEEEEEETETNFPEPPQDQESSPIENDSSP

lectin-like transcript 1 (LLT1), recombinantly expressed on cells (human), sequence (Q9UHP7 whole entry, the tested form may be a part): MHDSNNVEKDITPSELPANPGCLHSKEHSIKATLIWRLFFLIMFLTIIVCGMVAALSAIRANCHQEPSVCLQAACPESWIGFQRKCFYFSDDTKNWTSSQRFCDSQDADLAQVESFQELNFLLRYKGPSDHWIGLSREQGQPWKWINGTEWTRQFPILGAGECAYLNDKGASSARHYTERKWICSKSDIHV
LLT1-Fc fusion protein (human), sequence (Q9UHP7 60-191 limits assumed): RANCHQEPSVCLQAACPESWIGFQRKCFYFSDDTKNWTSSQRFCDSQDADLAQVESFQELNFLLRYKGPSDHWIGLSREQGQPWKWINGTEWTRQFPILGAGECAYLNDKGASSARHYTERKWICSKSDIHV
CLEC2A-Fc protein, sequence (Q6UVW9 49-174): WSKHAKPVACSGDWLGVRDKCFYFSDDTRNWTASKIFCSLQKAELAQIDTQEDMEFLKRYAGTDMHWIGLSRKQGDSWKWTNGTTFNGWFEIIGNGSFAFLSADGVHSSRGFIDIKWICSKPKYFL

Substance: anti-CD161 mAb DX12 (antibody)
% CD107a+ NK cells (NK cells + C1R-LLT1) [1]: 8.1%
% IFN-γ+ NK cells (NK cells + C1R-LLT1) [1]: 5.4%

Substance: MAB3480 (antibody)
% CD107a+ NK cells (NK cells + C1R-LLT1) [2]: 4.7%
% IFN-γ+ NK cells (NK cells + C1R-LLT1) [2]: 3%
OD [3]: 1.21 OD
OD [4]: 0.104 OD
OD [5]: 0.117 OD
OD [6]: 0.112 OD

Substance: AF3480 (antibody)
% CD107a+ NK cells (NK cells + C1R-LLT1) [2]: 5.3%
% IFN-γ+ NK cells (NK cells + C1R-LLT1) [2]: 3.3%

Substance: HRP-conjugated anti-human Ig antibody
OD [7]: 1.08 OD
OD [8]: 1.15 OD
OD [9]: 1.01 OD
OD [10]: 1.04 OD

Results, then the substance that gave them:

% CD107a+ NK cells (NK cells + C1R-LLT1) [1]: 13.2%
% IFN-γ+ NK cells (NK cells + C1R-LLT1) [1]: 7.4%
Substance: anti-CD161 mAb 191B8 (antibody)

% CD107a+ NK cells (NK cells + C1R-LLT1) [1]: 9.5%
% CD107a+ NK cells, Raji target cells (no mAb 10.3) [1]: 13.1%
% CD107a+ NK cells, Ramos target cells (no mAb 8.1) [1]: 10.9%
% CD107a+ NK cells, SUDHL4 target cells (no mAb 11.6) [1]: 17.5%
% IFN-γ+ NK cells (NK cells + C1R-LLT1) [1]: 5.3%
Substance: anti-CD161 mAb HP3G10 (antibody)

ADCC: specific lysis of C1R and C1R-LLT1 cells by NK cells (chromium release); antibody concentration giving lysis [11]: > 0.16 mg/mL
Substance: anti-CD20 (rituximab) (antibody)
